Assay results as given in patent US20110053163A1, “Biomarker” (BIOVATOR TECHNOLOGIES AB, priority 2007, published 2011).

What was measured:
MonoMac-6 cells = experiment: Cytokine Profile Assay (CPA): neopterin production by stimulated MonoMac-6 cells, ELISA; format: cell-based, human; details: with IFN-γ 100 U/ml
Excerpt: (§1) The instructions of the manufacturers were followed. All these tests are enzyme immunoassays (EIA:s). The principle is that microtiter plate wells are labelled with a cytokine specific capture antibody. If cytokine is present in the samples added to the wells it will be captured to the bottom of the well. […] The reaction is thereafter measured as colour developed after addition of a substrate for the enzyme. The values for the test wells are compared with a standard curve obtained by adding a series of known amounts of cytokine. The values obtained for control wells with no substance added are used as background values for cytokine levels.
(§2) The myelomonocytic cell line MonoMac-6 (obtained from DSMZ, accession number ACC 124, Prof. H. W. L. Ziegler-Heitbrock, Inst. For Immunology, University of Munich, Munich) was cultured in cell culture flasks (Corning). Cells were cultured in RPMI 1640 medium (Gibco BRL), containing 20 mM HEPES and L-glutamine and supplemented with 10% heat-inactivated foetal bovine serum (Gibco BRL), penicillin (100 U/mL; Sigma-Aldrich), streptomycin (100 μg/mL; Sigma-Aldrich), sodium pyruvate (1.0 mM;Gibco BRL), human insulin (9 μg/mL; Gibco BRL) and non-essential amino acids (Gibco BRL) or cultured in Panserin 411 (Pan Biotech) supplemented with penicillin (100 U/mL), streptomycin (100 μg/mL).
The cells were split approximately 1:3 the day before stimulation. The stimulation procedure was performed in three steps. The first step was pre-dilution of test substances, to double the final concentration, in cell culture medium. Furthermore, Interferon-γ (IFN-γ) (100 U, PreproTech) was added in the cell culture media for 24 or 48 hours during stimulation of cells with test substances. The number of cells was then determined by trypan blue exclusion and the cells were diluted to twice the final test concentration (2×10^6 cells/mL) if not otherwise indicated and 100 μl of cell suspension was added per well in 96 well tissue culture plates (Corning). Finally, a 100 μl of pre-diluted test substance (triplicate cultures) was added to the tissue culture plates. […] The stimulated cells were cultured at 37° C., 5% CO2, for 24 or 48 hours. The cell suspension was transferred to new cell culture plates and stored at −20° C. until analyzed. Thereafter the cell suspension was analyzed for presence of neopterin and IL-10 by ELISA (IBL-Hamburg) following the manufacturers instructions.

MM6-cells = experiment: CPA: IL-10 levels of stimulated MM6 cells, ELISA; format: cell-based, human; details: 25-200 μg/ml; 48 hours; with IFN-γ 100 U/ml
Excerpt: as §1, §2
The cells were split approximately 1:3 the day before stimulation. The stimulation procedure was performed in three steps. The first step was pre-dilution of test substances, to double the final concentration, in cell culture medium. […] The number of cells was then determined by trypan blue exclusion and the cells were diluted to twice the final test concentration (2×10^6 cells/mL) if not otherwise indicated and 100 μl of cell suspension was added per well in 96 well tissue culture plates (Corning). […] The cell suspension was transferred to new cell culture plates and stored at −20° C. until analyzed. Thereafter the cell suspension was analyzed for presence of neopterin and IL-10 by ELISA (IBL-Hamburg) following the manufacturers instructions.

[1] = serum free Panserin media, 48 hrs

B1: Gal d 2: native allergen component from Phadia (Ovalbumin, Egg white) (protein, UniProt P01012 2-386, looked up)
Ovalbumin: GSIGAASMEFCFDVFKELKVHHANENIFYCPIAIMSALAMVYLGAKDSTRTQINKVVRFDKLPGFGDSIEAQCGTSVNVHSSLRDILNQITKPNDVYSFSLASRLYAEERYPILPEYLQCVKELYRGGLEPINFQTAADQARELINSWVESQTNGIIRNVLQPSSVDSQTAMVLVNAIVFKGLWEKAFKDEDTQAMPFRVTEQESKPVQMMYQIGLFRVASMASEKMKILELPFASGTMSMLVLLPDEVSGLEQLESIINFEKLTEWTSSNVMEERKIKVYLPRMKMEEKYNLTSVLMAMGITDVFSSSANLSGISSAESLKISQAVHAAHAEINEAGREVVGSAEAGVDAASVSEEFRADHPFLFCIKHIATNAVLFFGRCVSP
Q: With B1 as the molecule, how does the “neopterin response (in words)” value (MonoMac-6 cells; [1]) read?
A: increased in a dose dependent manner

Q: And the “IL-10 levels (in words)” value (MM6-cells)?
A: induced increased IL-10 levels in a dose dependent manner

B2: Alt a 1: native allergen component from Phadia (Alternaria) (protein, UniProt P79085 19-157, looked up)
Major allergen Alt a 1: APLESRQDTASCPVTTEGDYVWKISEFYGRKPEGTYYNSLGFNIKATNGGTLDFTCSAQADKLEDHKWYSCGENSFMDFSFDSDRSGLLLKQKVSDDITYVATATLPNYCRAGGNGPKDFVCQGVADAYITLVTLPKSS
Q: B2 was tested. Which “neopterin response (in words)” value (MonoMac-6 cells; proteins, RPMI+10% FCS, 24 hrs, over the tested concentrations) did it give?
A: increased in a dose dependent manner

Q: And the “neopterin response (in words)” value (MonoMac-6 cells; serum free Panserin media, 24 hrs)?
A: increased in a dose dependent manner

Q: And the “neopterin response (in words)” value (MonoMac-6 cells; [1])?
A: increased in a dose dependent manner

Q: What about the “IL-10 levels (in words)” value (MM6-cells) of the same molecule?
A: induced increased IL-10 levels in a dose dependent manner

B3: Gal d 3: native allergen component from Phadia (Conalbumin, Egg, white) (protein, UniProt P02789 20-705, looked up)
Ovotransferrin: APPKSVIRWCTISSPEEKKCNNLRDLTQQERISLTCVQKATYLDCIKAIANNEADAISLDGGQAFEAGLAPYKLKPIAAEVYEHTEGSTTSYYAVAVVKKGTEFTVNDLQGKTSCHTGLGRSAGWNIPIGTLLHRGAIEWEGIESGSVEQAVAKFFSASCVPGATIEQKLCRQCKGDPKTKCARNAPYSGYSGAFHCLKDGKGDVAFVKHTTVNENAPDQKDEYELLCLDGSRQPVDNYKTCNWARVAAHAVVARDDNKVEDIWSFLSKAQSDFGVDTKSDFHLFGPPGKKDPVLKDLLFKDSAIMLKRVPSLMDSQLYLGFEYYSAIQSMRKDQLTPSPRENRIQWCAVGKDEKSKCDRWSVVSNGDVECTVVDETKDCIIKIMKGEADAVALDGGLVYTAGVCGLVPVMAERYDDESQCSKTDERPASYFAVAVARKDSNVNWNNLKGKKSCHTAVGRTAGWVIPMGLIHNRTGTCNFDEYFSEGCAPGSPPNSRLCQLCQGSGGIPPEKCVASSHEKYFGYTGALRCLVEKGDVAFIQHSTVEENTGGKNKADWAKNLQMDDFELLCTDGRRANVMDYRECNLAEVPTHAVVVRPEKANKIRDLLERQEKRFGVNGSEKSKFMMFESQNKDLLFKDLTKCLFKVREGTTYKEFLGDKFYTVISSLKTCNPSDILQMCSFLEGK
Q: Which “neopterin response (in words)” value (MonoMac-6 cells; [1]) does the source give for B3 here?
A: increased in a dose dependent manner

B4: Der p 1: allergenic protein tested for IL-10 induction (protein, UniProt P08176 99-320, looked up)
Peptidase 1: TNACSINGNAPAEIDLRQMRTVTPIRMQGGCGSCWAFSGVAATESAYLAYRNQSLDLAEQELVDCASQHGCHGDTIPRGIEYIQHNGVVQESYYRYVAREQSCRRPNAQRFGISNYCQIYPPNVNKIREALAQTHSAIAVIIGIKDLDAFRHYDGRTIIQRDNGYQPNYHAVNIVGYSNAQGVDYWIVRNSWDTNWGDNGYGYFAANIDLMMIEEYPYVVIL
Q: With B4 as the molecule, how does the “IL-10 levels (in words)” value (MM6-cells) read?
A: induced increased IL-10 levels in a dose dependent manner
